For 55 molecules, Kd results are on record in patent publication US20200199241A1 (Chugai, published 2020).

Residue numbers refer to the chain shown, from its start. In names and notes the source's numbering stands.

This test concerns the target T1, human FcRn (soluble human FcRn complexed with β2-microglobulin) (human, UniProt P61769 21-119, limits assumed).
T1 construct: also called hFcRn
Briefly: SPR, pH 7.0.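 Note: antibodies captured on a Protein L sensor chip with human FcRn injected as analyte, KD calculated from fitted association and dissociation rate constants.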

T1 sequence (chain, as listed by the source limits assumed, chain 1 of 2): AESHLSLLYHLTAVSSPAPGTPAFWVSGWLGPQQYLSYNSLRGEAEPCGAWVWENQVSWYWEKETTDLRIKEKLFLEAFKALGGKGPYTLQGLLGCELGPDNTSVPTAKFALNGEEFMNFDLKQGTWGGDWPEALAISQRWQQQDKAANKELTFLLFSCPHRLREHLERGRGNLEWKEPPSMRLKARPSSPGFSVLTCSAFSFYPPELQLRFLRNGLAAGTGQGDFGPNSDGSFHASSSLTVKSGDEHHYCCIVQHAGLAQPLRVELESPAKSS
T1 sequence (P61769 21-119 limits assumed, chain 2 of 2): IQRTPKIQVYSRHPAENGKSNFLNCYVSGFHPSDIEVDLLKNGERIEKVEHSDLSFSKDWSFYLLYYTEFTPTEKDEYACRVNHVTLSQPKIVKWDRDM

B1: IgG1-F299 (antibody)
heavy: QVQLQESGPGLVKPSETLSLTCAVSGHSISHDHAWSWVRQPPGEGLEWIGFISYSGITNYNPSLQGRVTISRDNSKNTLYLQMNSLRAEDTAVYYCARSLARTTAMDYWGEGTLVTVSSASTKGPSVFPLAPSSKSTSGGTAALGCLVKDYFPEPVTVSWNSGALTSGVHTFPAVLQSSGLYSLSSVVTVPSSSLGTQTYICNVNHKPSNTKVDKKVEPKSCDKTHTCPPCPAPELLGGPKVFLFPPKPKDTLYISRTPEVTCVVVDVSHEDPEVKFNWYVDGVEVHNAKTKPREEQYNSTYRVVSVLTPLHADWLNGKEYKCKVSNKALPAPIEKTISKAKGQPREPQVYTLPPSRDELTKNQVSLTCLVKGFYPSDIAVEWESNGQPENNYKTTPPVLDSDGSFFLYSKLTVDKSRWQQGNVFSCSVYHEALHYHYTQKSLSLSP
light: not shown
notes: EU numbering; copies: 2 + 2
With B1, the affinity, expressed as Kd, was 94 nM.

B2: IgG1-F300 (antibody)
heavy: B1 heavy with A313Q, D314A
light: not shown
notes: EU numbering; copies: 2 + 2
B2 returned a Kd of 83 nM. This Kd and that of the molecule before are within 1.5-fold of each other.

B3: IgG1-F320 (antibody)
heavy: B1 heavy with A313Q, N327G, E384A, Y430I
light: not shown
notes: EU numbering; copies: 2 + 2
B3 displayed a dissociation constant (Kd) of 20 nM. Compared with the last molecule, the Kd is about 4.2-fold lower.

B4: IgG1-F322 (antibody)
heavy: B1 heavy with D272F, T309P, A313Q, Y430M
light: not shown
notes: EU numbering; copies: 2 + 2
As to B4, the dissociation constant (Kd) is 92 nM.

B5: IgG1-F360 (antibody)
heavy: B1 heavy with K241S, Y254M, P259V, T309Q, P310V, A313Q, Y430V
light: not shown
notes: EU numbering; copies: 2 + 2
In turn, B5 returned a Kd of 1300 nM.

B6: IgG1-F312 (antibody)
heavy: B1 heavy with Y254W, P310V, A313Q, E382A, E384A, Y430F
light: not shown
notes: EU numbering; copies: 2 + 2
Regarding B6, the Kd is 450 nM.

B7: IgG1-F315 (antibody)
heavy: B1 heavy with P310V, A313Q
light: not shown
notes: EU numbering; copies: 2 + 2
On to B7, for which the Kd amounted to 680 nM.

B8: IgG1-F325 (antibody)
heavy: B1 heavy with D272F, T309Q, Y430M
light: not shown
notes: EU numbering; copies: 2 + 2
Turning to B8, the Kd is 21 nM.

B9: IgG1-F331 (antibody)
heavy: B1 heavy with D272F, A313Q, P389E, Y430M
light: not shown
notes: EU numbering; copies: 2 + 2
B9 showed a Kd of 30 nM.

B10: IgG1-F367 (antibody)
heavy: B1 heavy with E260H, D272F, T309Q, Y430M
light: not shown
notes: EU numbering; copies: 2 + 2
Consider B10, for which the affinity, expressed as Kd, was 15 nM.

B11: IgG1-F310 (antibody)
heavy: B1 heavy with Y254W, A313Q, E384A, Y430I
light: not shown
notes: EU numbering; copies: 2 + 2
With B11, binding was characterised by a dissociation constant (Kd) of 94 nM. This Kd lies about 6.3-fold higher than the previous one.

B12: IgG1-F334 (antibody)
heavy: B1 heavy with D272F, A313Q, N327G, Y430I
light: not shown
notes: EU numbering; copies: 2 + 2
The molecule B12 showed a Kd of 19 nM. Against the preceding molecule, the Kd is about 4.9-fold lower.

B13: IgG1-F301 (antibody)
heavy: B1 heavy with D314A
light: not shown
notes: EU numbering; copies: 2 + 2
For B13, the Kd stood at 72 nM.

B14: IgG1-F313 (antibody)
heavy: B1 heavy with T309P, P310V, A313Q
light: not shown
notes: EU numbering; copies: 2 + 2
Consider B14, for which the Kd amounted to 650 nM.

B15: IgG1-F306 (antibody)
heavy: B1 heavy with K241S, Y254W, A313Q, E384A, Y430M
light: not shown
notes: EU numbering; copies: 2 + 2
For the molecule B15, the Kd came out at 36 nM.

B16: IgG1-F333 (antibody)
heavy: B1 heavy with D272F, T309Q, P310V, L311E, Y430M
light: not shown
notes: EU numbering; copies: 2 + 2
B16 yielded a Kd of 74 nM.

B17: IgG1-F323 (antibody)
heavy: B1 heavy with T258E, D272F, A313Q, Y430M
light: not shown
notes: EU numbering; copies: 2 + 2
As for B17, the equilibrium dissociation constant (Kd) worked out at 27 nM.

B18: IgG1-F326 (antibody)
heavy: B1 heavy with D272F, T309Q, P310V, Y430M
light: not shown
notes: EU numbering; copies: 2 + 2
B18: the Kd was 75 nM.

B19: IgG1-F364 (antibody)
heavy: B1 heavy with K241S, Y254M, P259V, T309Q, P310V, N327G, Y430L
light: not shown
notes: EU numbering; copies: 2 + 2
B19 came in with a dissociation constant (Kd) of 35 nM.

B20: IgG1-F339 (antibody)
heavy: B1 heavy with D272F, L311E, A313Q, Y430I
light: not shown
notes: EU numbering; copies: 2 + 2
Consider B20, for which the Kd was determined as 19 nM.

B21: IgG1-F362 (antibody)
heavy: B1 heavy with K241S, Y254M, P259V, T309Q, P310V, A313Q, N327G, Y430L
light: not shown
notes: EU numbering; copies: 2 + 2
For B21, binding was put at a Kd of 54 nM.

B22: IgG1-F349 (antibody)
heavy: B1 heavy with L311P, A313Q, Y430L
light: not shown
notes: EU numbering; copies: 2 + 2
Molecule B22 had a Kd of 150 nM. This Kd lies about 2.8-fold higher than the previous one.

B23: IgG1-F369 (antibody)
heavy: B1 heavy with K241S, P259V, T309Q, P310V, A313Q, Y430I
light: not shown
notes: EU numbering; copies: 2 + 2
B23 had a Kd of 75 nM.

B24: IgG1-F372 (antibody)
heavy: B1 heavy with Y254W, A313Q
light: not shown
notes: EU numbering; copies: 2 + 2
Consider B24, for which the Kd stood at 13 nM.

B25: IgG1-F354 (antibody)
heavy: B1 heavy with T309Q, A313Q, Y430L
light: not shown
notes: EU numbering; copies: 2 + 2
In the case of B25, the Kd was found to be 28 nM.

B26: IgG1-F350 (antibody)
heavy: B1 heavy with L311R, A313Q, Y430L
light: not shown
notes: EU numbering; copies: 2 + 2
The molecule B26 returned a Kd of 170 nM. This Kd lies about 6.1-fold higher than the previous one.

B27: IgG1-F311 (antibody)
heavy: B1 heavy with Y254W, A313Q, Y430F
light: not shown
notes: EU numbering; copies: 2 + 2
B27 displayed a Kd of 28 nM. This Kd lies about 6.1-fold lower than the previous one.

B28: IgG1-F308 (antibody)
heavy: B1 heavy with Y254W, A313Q, E384A
light: not shown
notes: EU numbering; copies: 2 + 2
Regarding B28, binding was put at a Kd of 19 nM.

B29: IgG1-F302 (antibody)
heavy: B1 heavy with K241S, T258E, T309P, P310V, A313Q, Y430M
light: not shown
notes: EU numbering; copies: 2 + 2
B29: the Kd worked out at 190 nM.

B30: IgG1-F337 (antibody)
heavy: B1 heavy with D272F, T309Q, P310V, Y430I
light: not shown
notes: EU numbering; copies: 2 + 2
B30 had a Kd of 56 nM.

B31: IgG1-F307 (antibody)
heavy: B1 heavy with Y254W, A313Q, E384A, Y430M
light: not shown
notes: EU numbering; copies: 2 + 2
With B31, the Kd is 36 nM. This Kd lies about 1.6-fold lower than the previous one.

B32: IgG1-F335 (antibody)
heavy: B1 heavy with T258E, D272F, A313Q, Y430I
light: not shown
notes: EU numbering; copies: 2 + 2
For B32, binding was characterised by a dissociation constant (Kd) of 15 nM.

B33: IgG1-F368 (antibody)
heavy: B1 heavy with D272F, A313Q, N327G, E384A, Y430I
light: not shown
notes: EU numbering; copies: 2 + 2
Molecule B33 showed a Kd of 20 nM. This Kd and that of the molecule before are within 1.5-fold of each other.

B34: IgG1-F304 (antibody)
heavy: B1 heavy with K241S, Y254W, A313Q
light: not shown
notes: EU numbering; copies: 2 + 2
Turning to B34, the Kd was found to be 16 nM.

B35: IgG1-F316 (antibody)
heavy: B1 heavy with D272F, P310V, A313Q
light: not shown
notes: EU numbering; copies: 2 + 2
B35 came in with a Kd of 700 nM.

B36: IgG1-F303 (antibody)
heavy: B1 heavy with K241S, T309P, P310V, A313Q
light: not shown
notes: EU numbering; copies: 2 + 2
In the case of B36, the Kd worked out at 670 nM. This Kd and that of the molecule before are within 1.5-fold of each other.

B37: IgG1-F330 (antibody)
heavy: B1 heavy with D272F, L311E, A313Q, Y430M
light: not shown
notes: EU numbering; copies: 2 + 2
Regarding B37, the affinity, expressed as Kd, was 36 nM.

B38: IgG1-F324 (antibody)
heavy: B1 heavy with D272F, T309Q, A313Q, Y430M
light: not shown
notes: EU numbering; copies: 2 + 2
In the case of B38, the Kd came to 28 nM.

B39: IgG1-F336 (antibody)
heavy: B1 heavy with D272F, T309Q, Y430I
light: not shown
notes: EU numbering; copies: 2 + 2
Turning to B39, the affinity, expressed as Kd, was 14 nM.

B40: IgG1-F321 (antibody)
heavy: B1 heavy with D272F, A313Q, N327G, Y430M
light: not shown
notes: EU numbering; copies: 2 + 2
Take B40: the Kd is 32 nM.

B41: IgG1-F338 (antibody)
heavy: B1 heavy with D272F, N288E, A313Q, Y430I
light: not shown
notes: EU numbering; copies: 2 + 2
Molecule B41 gave a Kd of 7.7 nM.

B42: IgG1-F363 (antibody)
heavy: B1 heavy with K241S, Y254M, P259V, T309Q, P310V, Y430L
light: not shown
notes: EU numbering; copies: 2 + 2
Molecule B42 displayed a Kd of 41 nM. Against the preceding molecule, the Kd is about 5.3-fold higher.

B43: IgG1-F356 (antibody)
heavy: B1 heavy with D272F, L311E, A313Q, P389E, Y430M
light: not shown
notes: EU numbering; 'Y308P' as printed, probably V308P; copies: 2 + 2
Molecule B43 showed a Kd of 34 nM.

B44: IgG1-F358 (antibody)
heavy: B1 heavy with T309Q, P310V, A313Q, Y430M
light: not shown
notes: EU numbering; copies: 2 + 2
B44 had a Kd of 100 nM.

B45: IgG1-F365 (antibody)
heavy: B1 heavy with K241S, Y254M, P259V, V307A, T309Q, P310V, A313Q, Y430L
light: not shown
notes: EU numbering; copies: 2 + 2
Regarding B45, binding was put at a Kd of 51 nM.

B46: IgG1-F318 (antibody)
heavy: B1 heavy with A313Q, Y430I
light: not shown
notes: EU numbering; copies: 2 + 2
With B46, the Kd came out at 18 nM.

B47: IgG1-F314 (antibody)
heavy: B1 heavy with K241S, T258E, P310V, D314A
light: not shown
notes: EU numbering; copies: 2 + 2
For B47, the Kd was 320 nM. This Kd lies about 18-fold higher than the previous one.

B48: IgG1-F352 (antibody)
heavy: B1 heavy with P310V, L311P, A313Q, Y430L
light: not shown
notes: EU numbering; copies: 2 + 2
In the case of B48, binding was characterised by a dissociation constant (Kd) of 600 nM. Compared with the last molecule, the Kd is about 1.9-fold higher.

B49: IgG1-F328 (antibody)
heavy: B1 heavy with D272F, A313Q, Y430I
light: not shown
notes: EU numbering; copies: 2 + 2
In turn, B49 had a Kd of 19 nM.

B50: IgG1-F305 (antibody)
heavy: B1 heavy with K241S, T258E, A313Q, E384A, Y430M
light: not shown
notes: EU numbering; copies: 2 + 2
The molecule B50 returned a Kd of 27 nM.

B51: IgG1-F359 (antibody)
heavy: B1 heavy with K241S, Y254M, P259V, T309Q, P310V, A313Q, Y430I
light: not shown
notes: EU numbering; copies: 2 + 2
B51 showed a Kd of 420 nM.

B52: IgG1-F317 (antibody)
heavy: B1 heavy with D272F, A313Q
light: not shown
notes: EU numbering; copies: 2 + 2
Molecule B52 displayed a Kd of 110 nM.

B53: IgG1-F343 (antibody)
heavy: B1 heavy with D272F, A313Q, Y430L
light: not shown
notes: EU numbering; copies: 2 + 2
Molecule B53 had a Kd of 32 nM.

B54: IgG1-F344 (antibody)
heavy: B1 heavy with A313Q, Y430L
light: not shown
notes: EU numbering; copies: 2 + 2
Take B54: the equilibrium dissociation constant (Kd) was 30 nM.

B55: IgG1-F353 (antibody)
heavy: B1 heavy with P310V, L311R, A313Q, Y430L
light: not shown
notes: EU numbering; copies: 2 + 2
With B55, binding was put at a Kd of 1100 nM.
